Source: PMC8487509

Target: T1, LsrR (Escherichia coli DCM5 (mammary pathogenic)) (UniProt Q8XAY6)
T1 sequence: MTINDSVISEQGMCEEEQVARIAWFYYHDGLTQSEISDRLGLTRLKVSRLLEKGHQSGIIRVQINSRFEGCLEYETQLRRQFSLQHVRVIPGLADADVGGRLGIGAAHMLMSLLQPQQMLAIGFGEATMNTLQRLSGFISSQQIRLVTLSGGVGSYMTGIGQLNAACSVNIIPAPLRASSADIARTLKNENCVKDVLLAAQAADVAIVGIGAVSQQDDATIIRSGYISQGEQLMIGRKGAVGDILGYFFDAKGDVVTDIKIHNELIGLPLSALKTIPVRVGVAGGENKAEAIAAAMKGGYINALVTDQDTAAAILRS
Assay: EMSA
Conditions: 5x binding buffer (4 µL) […]

TCCGCAAAAGTTCACGTTGGCTTTAGTTATTCGAGTTGAGAAACTCTCGAAACGGGCAGTGACTTCAAGGGTTAAAAGAGGTGCCGCTCCGTTTCTGTGAGCAATTATCAGTCAGAATGCTTGATAGGGATAATCGTTCATTGCTATTCTACCTATCGCCATGAACTATCGTGGCGATGGAGGATGGATA (double strand) [p-oxyR]
binding: no binding
